T1: his-tagged soluble human OX40 (huOX40-6xhis) (human, UniProt P43489 29-214)
T1 construct: made in-house; also called Human-OX40-6XHIS; hOX40; not shown: hexahistidine tag
T1 sequence: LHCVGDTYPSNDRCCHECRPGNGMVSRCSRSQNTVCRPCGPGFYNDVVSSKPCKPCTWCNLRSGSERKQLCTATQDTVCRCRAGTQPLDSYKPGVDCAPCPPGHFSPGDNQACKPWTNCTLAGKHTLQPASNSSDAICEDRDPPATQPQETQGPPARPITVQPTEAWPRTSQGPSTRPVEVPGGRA

T2: human OX40 on cells (human, UniProt P43489 29-277)
T2 sequence: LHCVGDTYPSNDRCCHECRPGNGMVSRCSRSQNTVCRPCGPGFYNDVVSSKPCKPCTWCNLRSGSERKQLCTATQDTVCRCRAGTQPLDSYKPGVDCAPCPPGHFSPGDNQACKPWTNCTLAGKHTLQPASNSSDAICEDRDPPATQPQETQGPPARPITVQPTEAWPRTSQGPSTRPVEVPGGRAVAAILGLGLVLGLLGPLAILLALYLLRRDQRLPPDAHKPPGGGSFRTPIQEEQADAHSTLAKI

T3: cynomolgus OX40 on cells (cynomolgus, UniProt P43489 29-277 (human entry))
T3 construct: also called cynoOX40-CHO
T3 chain: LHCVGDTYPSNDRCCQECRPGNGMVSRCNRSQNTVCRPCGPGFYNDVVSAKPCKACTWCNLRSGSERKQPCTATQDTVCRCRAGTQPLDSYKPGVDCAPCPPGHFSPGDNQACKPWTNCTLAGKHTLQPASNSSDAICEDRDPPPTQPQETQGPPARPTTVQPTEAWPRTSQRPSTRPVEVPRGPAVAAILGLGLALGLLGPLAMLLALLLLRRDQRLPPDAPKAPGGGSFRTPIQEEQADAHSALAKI


Legend:
[1] = molecular target: T1, his-tagged soluble human OX40 …; assay: SPR, mAb captured on anti-human CH1, OX40-6XHIS analyte, 1:1 fit
Experimental: The affinity of several OX40 antibodies for soluble human OX40 was tested by SPR analysis. […] Human-OX40-6XHIS antigen in either a single concentration of 400 nM or a 1:2 serial dilution from 400 nM was used. Experiments were carried out on BIACORE® T200 or BIACORE® 3000 SPR instruments. Data was fit to a 1:1 model.

human OX40 on cells [2] = molecular target: T2, human OX40 on cells; assay: cell-based or functional assay
human OX40 on cells [3] = molecular target: T2, human OX40 on cells; assay: FACS competition on HT1080-hOX40 cells against APC-OX40.1 (FL2 MFI); the table gives no unit, axis 'Ab conc nM'; NOTE: the curve of this antibody is flat at about 18000 (no inhibition), the printed fit value has no meaning as a potency
Experimental: (§1) This experiment was performed to test the cross-blocking properties of various anti-OX40 antibodies to assess binding specificities. […] Cells were washed and if necessary further incubated in the presence of streptavidin-APC conjugate under the same conditions. After the final wash, cells were analyzed on a FACSCanto flow cytometer (BD Bioscience, San Jose, Calif.). Mean fluorescence intensity (MFI) signal was proportional to bound conjugated antibody.

cynomolgus OX40 on cells [4] = molecular target: T3, cynomolgus OX40 on cells; assay: FACS, activated cyno T cells; mean ± SD, n=4
Experimental: (§2) Briefly, cells were activated for several days before the binding assay in order to induce OX40 expression. Total leukocytes were isolated from cynomolgus macaque peripheral blood by lysis of red blood cells using an ammonium chloride buffer. The leukocytes were then cultured for four to five days with in flasks pre-coated with anti-human CD3 plus anti-human CD28 antibodies that cross-react with cynomolgus macaque, in the presence of recombinant human IL-2, in order to expand and activate T cells. On the day of the assay, the cells were harvested and stained with a titration of each anti-OX40 antibody. Bound antibodies were detected with a fluorescently conjugated anti-human IgG polyclonal secondary antibody, and the cells were co-stained for CD4 and CD25 to detect activated CD4 T cells. The fluorescence intensity of the staining was measured using a FACSCanto II flow cytometer (Becton Dickinson). The geometric mean fluorescence intensity (GMFI) or median fluorescence intensity (MedFI) of anti-OX40 antibody staining was calculated for the CD4+CD25+ population (FACSDiva software). Dose-response curves were generated and EC50s for antibody binding were calculated using GraphPad Prism software.

human OX40 on cells [5] = molecular target: T2, human OX40 on cells; assay: FACS, activated human T cells; mean ± SD, n=2
Experimental: (§3) Cells were activated for several days before the binding assay in order to induce OX40 expression. Briefly, PBMCs were cultured for three or four days with magnetic beads coated with anti-human CD3 plus anti-human CD28, in the presence of recombinant human IL-2. On the day of the assay, the beads were removed and the cells stained with a titration of each anti-OX40 antibody. Bound antibodies were detected with a fluorescently conjugated anti-human IgG polyclonal secondary antibody, and the cells were co-stained for CD4 and CD25 to detect activated CD4 T cells. The fluorescence intensity of the staining was measured using a FACSCanto II flow cytometer (Becton Dickinson). The geometric mean fluorescence intensity (GMFI) or median fluorescence intensity (MedFI) of anti-OX40 antibody staining was calculated for the CD4+CD25+ population (FACSDiva software). EC₅₀s for antibody binding were calculated using GraphPad Prism software.

human OX40 on cells [6] = molecular target: T2, human OX40 on cells; assay: FACS, blocking of OX40L-His (0.2 µg/mL) binding to hOX40-293 cells
Experimental: Briefly, 293 cells stably transfected with human OX40 were first pre-incubated with varying concentrations of anti-OX40 antibodies. […] The fluorescence intensity of the staining was measured using a FACSCanto II flow cytometer (Becton Dickinson).

human OX40 on cells [7] = molecular target: T2, human OX40 on cells; assay: FACS competition on HT1080-hOX40 cells against APC-OX40.1 (FL2 MFI); the table gives no unit, axis 'Ab conc nM'
Experimental: as §1

human OX40 on cells [8] = molecular target: T2, human OX40 on cells; assay: FACS, activated human T cells; mean ± SD, n=3
Experimental: as §3

human OX40 on cells [9] = molecular target: T2, human OX40 on cells; assay: FACS competition on hOX40-293 cells against biotin-OX40.5 (spike biotOX.5 @ 0.4 ug/mL, streptavidin-APC); FL4-MFI falls from about 8700 to about 4100; the table gives no unit, axis in nM
Experimental: as §1

human OX40 on cells [10] = molecular target: T2, human OX40 on cells; assay: cell-based or functional assay; remark: listed apart in the source
cynomolgus OX40 on cells [11] = molecular target: T3, cynomolgus OX40 on cells; assay: FACS, activated cyno T cells; mean ± SD, n=3
Experimental: as §2

human OX40 on cells [12] = molecular target: T2, human OX40 on cells; assay: FACS, activated primary human CD4+/CD25+ T cells, purified recombinant antibody, fluorescent anti-human IgG secondary (APC GMFI)
Experimental: as §3

cynomolgus OX40 on cells [13] = molecular target: T3, cynomolgus OX40 on cells; assay: FACS, activated primary cynomolgus macaque CD4+/CD25+ T cells, purified recombinant antibody, fluorescent anti-human IgG secondary (APC GMFI)
Experimental: as §2
The same experiment was performed with anti-OX40 antibodies with variable region substitutions.

Binder	Kd [1]	koff [1]	kon [1]	Proliferation EC50, CD4 T cells + CHO-CD3-CD32A (human OX40 on cells [2])	EC50 (cynomolgus OX40 on cells [4])	EC50 (human OX40 on cells [5])	EC50 (human OX40 on cells [6])	EC50 (human OX40 on cells [8])	IFNγ EC50, CD4 T cells + CHO-CD3-CD32A (human OX40 on cells [2])	IL-2 EC50, SEB PBMC, donor BMS-001 (human OX40 on cells [10])	IL-2 EC50, SEB PBMC, donor BMS-004 (human OX40 on cells [10])	IL-2 EC50, SEB PBMC, donor BMS-009 (human OX40 on cells [10])	IL-2 EC50, SEB PBMC, donor BMS-012 (human OX40 on cells [10])	IL-2 EC50, SEB PBMC, donor BMS-015 (human OX40 on cells [10])	IL-2 EC50, SEB PBMC, donor BMS-016 (human OX40 on cells [10])	IL-2 EC50, SEB PBMC, donor WB10024 (human OX40 on cells [10])	IL-2 EC50, SEB PBMC, donor WB10025 (human OX40 on cells [10])	IL-2 EC50, SEB PBMC, donor WB10026 (human OX40 on cells [10])	IL-2 EC50, SEB PBMC, donor WB10027 (human OX40 on cells [10])	IL-2 EC50, SEB PBMC, donor WB10137 (human OX40 on cells [10])	also measured
6E1 (antibody, V domains shown, also called 6E1.A12.A2; 6E1.A12) VH: QVQLVESGGGVVQPGRSLRLSCAASGFTFSSFAMHWVRQAPGKGLEWVTVISYDGSIKYYTDSVKGRFTFSRDNSKNTLYLQMNSLRAEDTAVYYCTRDGNYGSARYFQHWGQGTLVTVSS VL: EIVLTQSPATLSLSPGERATLSCRASQSVSSYLAWYQQKPGQAPRLLIYDASNRATGIPARFSGSGSGTDFTLTISSLEPEDFAVYYCQQRSNWPYTFGQGTKLEIK	11 nM	0.00141 s⁻¹	128000 M⁻¹ s⁻¹	0.014 nM	0.77 nM	0.97 nM															IC50 (human OX40 on cells [3]): ~0.00249 nM
8B11 (antibody, V domains shown, also called 8B11.H9.C1; 8B11.H9) VH: EIQLVQSGGGLVHPGGSLRLSCAGSGFTFSSDAMYWVRQAPGKGLEWVSAIGIGGDTYYTDSVMGRFTISRDNAKNSLYLQMNSLRAEDMAVYYCARLGMGYYFDYWGQGTLVTVSS VL: not shown	10.5 nM	0.00051 s⁻¹	48000 M⁻¹ s⁻¹	0.022 nM	0.2 nM	0.14 nM	0.45 nM														IC50 (human OX40 on cells [7]): 1.41 nM
23H3 (antibody, V domains shown, also called 23H3.C6) VH: EVQLVQSGGGLVHPGGSLRLSCAGSGFTFSNYAMYWVRQAPGKGLEWVSAIGIGGDTFYTDSVKGRFTISRDNAKNSLSLQMNSLRAEDMAVYYCARMGTGYFFDYWGQGTLVTVSS VL: EIVLTQSPATLSLSPGERATLSCRASQSVSSYLAWYQQKPGQAPRLLIYDASNRATGIPARFSGSGSGTDFTLTISSLEPEDFAVYYCQQRSNWPLTFGPGTKVDIK	3.6 nM	0.000395 s⁻¹	110000 M⁻¹ s⁻¹	0.028 nM	0.18 nM		0.38 nM	0.15 nM													EC50 (human OX40 on cells [9]): 3.68 nM
OX40.18 (antibody, human IgG1, kappa, V domains shown, g1f) VH: QVQLVQSGAEVKKPGASVKVSCKASGYTFTSYDVNWVRQATGQGLEWMGWMNPNSGNTGYAPKFQGRVTMTRDTSISTAYMELSSLRSEDTAVYYCARIYSSSYNWFDYWGQGTLVTVSS VL: EIVLTQSPATLSLSPGERATLSCRASQSVSSYLAWYQQKPGQAPRLLIYDASNRATGIPARFSGSGSGTDFTLTISSLEPEDFAVYYCQQRSNWPLTFGGGTKVEIKR				0.23 nM		3.15 nM			0.49 nM	~84.8 nM	2.43 nM	3.21 nM	~1.67 nM	> 100 nM	> 100 nM	~3.17 nM	~1.14 nM	3.02 nM	~3.27 nM	> 100 nM	IL-2 Mean EC50, SEB PBMC, all donors (human OX40 on cells [10]): 2.89 nM
OX40.17 (antibody, human IgG1, kappa, V domains shown) VH: EVQLVESGGGLVQPGGSLRLSCAASGFTFSSYDMHWVRQTTGKGLEWVSVIGTAGDTYYPGSVKGRFTISRENAKNSLYLQMNSLRAGDTAVYYCARGGMGNYFDYWGQGTLVTVSS VL: EIVLTQSPATLSLSPGERATLSCRASQSVSSYLAWYQQKPGQAPRLLIYDASNRATGIPARFSGSGSGTDFTLTISSLEPEDFAVYYCQQRSNWPLTFGGGTKVEIKR				0.009 nM				0.26 nM	0.044 nM	0.41 nM	1.03 nM	0.97 nM	1.74 nM	1.16 nM	1.4 nM	1.06 nM	1.35 nM	1.68 nM	1.15 nM	0.92 nM	EC50 (cynomolgus OX40 on cells [11]): 0.52 nM; IL-2 Mean EC50, SEB PBMC, all donors (human OX40 on cells [10]): 1.17 nM; EC50 (read off the curve) (human OX40 on cells [12]): ~0.2 nM; EC50 (read off the curve) (cynomolgus OX40 on cells [13]): ~0.4 nM
